These results are taken from patent US20230382991A1.

Several values for one entry are separate records, joined by “and”; a condition that tells them apart may be missing. Equal entries are not always repeated.

In assay [1] the target is cynomolgus macaque LILRB1.2 expressed on stably transduced HEK293T cells (cynomolgus macaque).
The target in assay [2] is cynomolgus macaque LILRB2.1 expressed on stably transduced HEK293T cells (cynomolgus macaque).
The target of assay [3] is cynomolgus macaque LILRB4 expressed on stably transduced HEK293T cells (cynomolgus macaque).

For “cynomolgus macaque Mafa-A1*063 SIV gag GW9 (…)-APC tetramer (peptide-MHC)”, the % cells in the tetramer+ gate in assay [1] is 51.7% and 53%; in assay [2] it was 73.5% and 71%; in assay [3], 0.13%.
